Target: full-length, relipidated human tissue factor (UniProt P13726)
Sequence (P13726 33-295): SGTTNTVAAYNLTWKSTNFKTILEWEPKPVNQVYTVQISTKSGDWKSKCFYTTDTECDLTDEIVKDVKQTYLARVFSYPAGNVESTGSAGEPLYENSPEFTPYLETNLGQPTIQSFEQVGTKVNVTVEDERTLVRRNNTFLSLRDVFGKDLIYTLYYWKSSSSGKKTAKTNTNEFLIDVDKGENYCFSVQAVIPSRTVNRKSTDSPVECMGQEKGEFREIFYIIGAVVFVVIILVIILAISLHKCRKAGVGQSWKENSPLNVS

rFVIIa(K62E)-FFR was tested, and the “prolongation of the clotting time of human and rabbit plasma (FIG. 6)” value was “rFVIIa(K62E)-FFR is a superior inhibitor of coagulation versus both rFVIIa(wt)-FFR and pdFVIIa-FFR at molar ratios of inhibitor:plasma FVII as low as 0.25:1 in both human and rabbit plasma”.

Reference: US20070207960
